This note sets out measurements from the supplement of paper PMC9732359.

± gives the uncertainty stated by the source.

The nature of this data set: protein stability index of a GFP-peptide fusion (yeast GPS) (PSI 1-4); higher = more stable; sorted into four equal gates, so the index is relative within each strain. Summed up: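 The protein stability index of a peptide was calculated by multiplying its read frequency in each gate by that gate's number and adding the products. The peptides were tiled 17-residue stretches of yeast proteins, fused downstream of GFP on a Cherry-expressing plasmid and carried in yeast as a pooled library. Mid-log cultures in leucine-free medium were sorted into four equal gates by GFP/Cherry ratio, and each gate's plasmids were PCR-amplified and Illumina-sequenced.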

As to DHSWFLLIGCKLDQDDE [CSI1], the protein stability index turned out to be 1.54 ± 0.11 (doa10∆), 1.95 ± 0.096 (pdr5∆), 3.03 ± 0.12 (san1∆) and 2.34 ± 0.064 (ubr1∆).
As to SGVMDKSVLGDGKKHSV [RPO31], the protein stability index worked out at 3.73 ± 0.21 (doa10∆), 3.71 ± 0.28 (pdr5∆) and 3.31 ± 0.2 (san1∆).
PVDVDFNLDLDDIVSHQ [REC8] came in with a protein stability index (pdr5∆) of 3.4 ± 0.12.
In turn, KSKILRKVVFPFQLDVA [UBP6] registered a protein stability index (doa10∆) of 2.23 ± 0.09, a protein stability index (pdr5∆) of 2.39 ± 0.089, a protein stability index (san1∆) of 2.65 ± 0.11 and a protein stability index (ubr1∆) of 2.44 ± 0.057.
The like results for YMDCLLYDLRASYAKIE [SNU114] were, in that order, 1.84 ± 0.074, 2.32 ± 0.076, 1.81 ± 0.095 and 1.74 ± 0.092.
The like results for TISKTVSSTIPRETIPF [FAS2] were, in that order, 2.96 ± 0.072, 2.96 ± 0.084, 2.75 ± 0.11 and 2.71 ± 0.052.
For the sequence LTSVTRHGFNRSNTGAL [RPO21], the protein stability index stood at 2.48 ± 0.067 (doa10∆), 2.39 ± 0.063 (pdr5∆), 2.75 ± 0.093 (san1∆) and 2.51 ± 0.058 (ubr1∆).
The like results for GTFGGDGMYSESKLSLE [FAS2] were, in that order, 2.91 ± 0.046, 2.66 ± 0.051, 3.35 ± 0.036 and 2.87 ± 0.04.
For RAGVTIPSIPNPIANHT [SNF5], in that order: 2.46 ± 0.05, 2.61 ± 0.039, 2.43 ± 0.041 and 2.64 ± 0.031.
In the case of IGGSLARIALRHLEKEG [RPS25A], the protein stability index amounted to 2.52 ± 0.068 (doa10∆), 2.5 ± 0.054 (pdr5∆), 1.82 ± 0.082 (san1∆) and 2.51 ± 0.06 (ubr1∆).
Turning to WGYQMVWAPTQKCFKLT [POP1], the protein stability index amounted to 2.59 ± 0.069 (doa10∆), 2.62 ± 0.068 (pdr5∆), 2.57 ± 0.069 (san1∆) and 2.66 ± 0.067 (ubr1∆).
For IDVDMDASPAPSNESCS [SRB5], in that order: 2.6 ± 0.053, 2.58 ± 0.05, 2.66 ± 0.057 and 2.32 ± 0.049.
With YSEHLKPYDINVVLVTN [DIS3], the protein stability index is 1.77 ± 0.071 (doa10∆), 2.98 ± 0.094 (pdr5∆), 2.86 ± 0.066 (san1∆) and 2.47 ± 0.055 (ubr1∆).
Consider VYSFDPVGSYEREQCRA [PRE7], for which the protein stability index is 3.62 ± 0.23 (doa10∆), 3.47 ± 0.23 (pdr5∆), 3.27 ± 0.13 (san1∆) and 3.29 ± 0.091 (ubr1∆).
With RDLGDDRVFNVPTIGVV [YJR042W/NUP85], the protein stability index (san1∆) was determined as 3.41 ± 0.19.
On to FGKTVKDGPFYTGSMSL [RPC31], for which the protein stability index is 2.92 ± 0.15 (doa10∆), 3.17 ± 0.11 (pdr5∆), 2.81 ± 0.086 (san1∆) and 2.98 ± 0.1 (ubr1∆).
For DSQIVTPGELVTDDPIW [RRP4], in that order: 2.78 ± 0.19, 3.07 ± 0.11, 2.76 ± 0.095 and 2.94 ± 0.077.
For EDFPIDTWANGETIKSN [SEM1], in that order: 3.55 ± 0.14, 3.61 ± 0.19, 3.13 ± 0.2 and 3.15 ± 0.15.
The like results for FFTNPNKKRPSSKKVFS [YOR098C/NUP1] were, in that order, 2.85 ± 0.059, 3.1 ± 0.054, 3.06 ± 0.046 and 3 ± 0.05.
As for ENDTTLVKTKELIKNYI [FAS1], the protein stability index was determined as 3.04 ± 0.13 (doa10∆), 2.85 ± 0.15 (pdr5∆), 2.83 ± 0.13 (san1∆) and 2.68 ± 0.058 (ubr1∆).
Regarding RKLFPNWIKPSDSEIPP [PRP8], the protein stability index is, setting by setting: (doa10∆) 3.42 ± 0.16; (pdr5∆) 2.89 ± 0.11; (san1∆) 2.91 ± 0.069; (ubr1∆) 2.97 ± 0.053.
Regarding AKSMAFLKEVLSDLSSP [YML103C/NUP188], the protein stability index by setting is: (doa10∆) 2.97 ± 0.079; (pdr5∆) 3.1 ± 0.079; (san1∆) 2.79 ± 0.11; (ubr1∆) 2.95 ± 0.065.
The like results for KRYANHTQDIIGGMRVD [RET1] were, in that order, 3.11 ± 0.069, 3.41 ± 0.075, 3.19 ± 0.049 and 3.37 ± 0.049.
The like results for VTDSSLLKLLTRLVQLR [GRR1] were, in that order, 2.4 ± 0.054, 1.7 ± 0.056, 2.41 ± 0.074 and 1.84 ± 0.045.
For DHASIRRGYQVYREVCA [CYT1], the protein stability index reads like this: (doa10∆) 1.87 ± 0.06; (pdr5∆) 1.5 ± 0.052; (san1∆) 1.27 ± 0.09; (ubr1∆) 1.71 ± 0.036.
The like results for HNGAPHHAIEEAESLLQ [RPO21] were, in that order, 3.07 ± 0.12, 3.39 ± 0.18, 2.66 ± 0.29 and 3 ± 0.088.
Turning to PLVIRRYLPDGSFEDWS [RPO26], the protein stability index by setting is: (doa10∆) 3.43 ± 0.18; (pdr5∆) 3.27 ± 0.18; (san1∆) 3.44 ± 0.068.
For RAQHVKKLATRPKCGDC [RPL34A], the protein stability index came to 3.06 ± 0.14 (doa10∆), 3.06 ± 0.12 (pdr5∆), 2.69 ± 0.11 (san1∆) and 3.13 ± 0.084 (ubr1∆).
Turning to STNHPDYDVSKKASEIS [SRP14], the protein stability index (pdr5∆) amounted to 3 ± 0.24.
Turning to LQYYILEYMNTARINNR [RRI2], the protein stability index came out at 2.12 ± 0.15 (doa10∆), 1.37 ± 0.097 (pdr5∆), 1.96 ± 0.14 (san1∆) and 1.93 ± 0.12 (ubr1∆).
GVTDLFRHFIGIKAKHD [ISW2]: the protein stability index is, setting by setting: (doa10∆) 1.2 ± 0.13; (pdr5∆) 1.43 ± 0.11.
Sequence ILTSKVNAIKNEVKEWA [DSN1] displayed a protein stability index (doa10∆) of 2.64 ± 0.09, a protein stability index (pdr5∆) of 2.66 ± 0.094, a protein stability index (san1∆) of 3.07 ± 0.072 and a protein stability index (ubr1∆) of 2.82 ± 0.08.
YRSHIFATNEERQMNFL [SWI3]: the protein stability index came out at 3.24 ± 0.091 (doa10∆), 2.69 ± 0.081 (pdr5∆), 2.59 ± 0.081 (san1∆) and 2.72 ± 0.051 (ubr1∆).
Regarding PDELIKAGVEAISQSLR [PRE5], the protein stability index by setting is: (doa10∆) 2.83 ± 0.14; (pdr5∆) 2.91 ± 0.15; (ubr1∆) 1.49 ± 0.051.
As to TLISENWWHSEFEIPVS [BRR2], the protein stability index was 1.84 ± 0.11 (doa10∆), 1.59 ± 0.058 (pdr5∆), 1.8 ± 0.1 (san1∆) and 1.25 ± 0.059 (ubr1∆).
Regarding VILAKNENETRDKVCKQ [PGD1], the protein stability index came out at 3.45 ± 0.18 (doa10∆) and 2.96 ± 0.12 (pdr5∆).
With PSDVNIDVMKSQIIPLM [SNU114], the protein stability index is, setting by setting: (doa10∆) 2.15 ± 0.1; (pdr5∆) 1.82 ± 0.053; (san1∆) 2.65 ± 0.07; (ubr1∆) 1.82 ± 0.058.
